Results reported in patent US11357847B2, “Modified HSV gD protein and vaccine containing same” (KM Biologics Co., Ltd., priority 2017, dated 2022).

Legend:
[1] = test system: various anti-gD2 antibodies; experiment: Reactivity of gD variants with anti-gD2 antibodies (competitive ELISA); assay type: binding, human; details: for Relative reactivity with antibody No. 82 (gD1-315 wild-type set to 1): FIG. 13; for Reactivity with anti-gD2 antibody 1 / Reactivity with anti-gD2 antibody 5 / Reactivity with anti-gD2 antibody 13 / Reactivity with anti-gD2 antibody 72 / Reactivity with anti-gD2 antibody 75 / Reactivity with anti-gD2 antibody 78 / Reactivity with anti-gD2 antibody 82: immobilized gD variant
Text: Each anti-gD2 monoclonal antibody and each gD variant were expressed using an Expi293 expression system.

HVEM = target: T1, HVEM (Homo sapiens, UniProt Q92956); experiment: Reactivity of HVEM with gD variants (competitive ELISA); assay type: binding; details: compared to the original gD1-315; FIG. 14
T1 sequence (Q92956 39-202): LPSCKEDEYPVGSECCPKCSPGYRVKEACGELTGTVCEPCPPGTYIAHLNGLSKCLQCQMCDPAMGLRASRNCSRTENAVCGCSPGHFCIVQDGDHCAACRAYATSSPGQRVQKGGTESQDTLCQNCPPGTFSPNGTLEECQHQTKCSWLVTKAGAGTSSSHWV
Description: From the above discussion, it can be strongly inferred that each variant takes the structure in which FR1 is bound to the receptor binding region. The reactivity of HVEM with each variant was then measured by competitive ELISA.
HVEM can bind gD for the first time when FR1 binds to the receptor binding region and takes a characteristic hairpin structure. […] FR3-deficient gD1-275v5-55 promoted FR1 binding and further HVEM binding over other gD1-315-based variants in which FR3 was present.

gD1-315 = gD1-315 (Human herpesvirus 2, UniProt P03172, R52Q); details: compared to wild-type gD immune serum; FIG. 33
Sequence of gD1-315 (P03172 26-340 R52Q): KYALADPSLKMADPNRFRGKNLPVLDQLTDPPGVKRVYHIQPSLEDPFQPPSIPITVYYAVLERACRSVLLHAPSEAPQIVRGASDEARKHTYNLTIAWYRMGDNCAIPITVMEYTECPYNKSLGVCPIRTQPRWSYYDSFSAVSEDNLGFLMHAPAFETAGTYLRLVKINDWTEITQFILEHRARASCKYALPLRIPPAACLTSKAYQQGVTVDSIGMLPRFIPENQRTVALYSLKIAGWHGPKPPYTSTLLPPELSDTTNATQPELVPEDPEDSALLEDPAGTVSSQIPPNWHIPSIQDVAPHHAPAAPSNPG
Description: IgG was purified from serum and analyzed by competitive methods using SPR (Biacore, Inc.) to make antibody amounts uniform.
The anti-gD2 antibody competition test was performed using Biacore 3000 (GE Healthcare), where, in all experiments, HBS-EP buffer (GE Healthcare) was used, the temperature was set to 25° C., and the flow rate was set to 20 μL/min. CMS senor chip (GE Healthcare) was used as the sensor chip, and the experiment was performed based on the recommended protocol. gD1-315-His was immobilized at about 300 RU on the chip surface, and for chip regeneration, glycine-hydrochloride buffer of 0.1 M and pH 2.0 was used and the chip was washed twice at a flow rate of 30 μL/min for 30 seconds. Procedures for competition and calculation of the competition rate were as follows. 10 μg/mL of each anti-gD2 antibody or buffer was applied to the chip under a condition of binding for 1 minute and dissociation for 2.5 minutes. 20 μg/mL of each immune serum purified by IgG was then applied under a condition of binding for 1 minute and dissociation for 5 minutes. After buffer application, the RU detected when immune serum was applied was set to 100%, and the decrease in immune serum response by anti-gD2 antibody application was calculated as the competitive rate.

gD-HVEM interactions = gD-HVEM interactions (Human herpesvirus 2, UniProt P03172, R52Q); details: compared to wild-type gD immune serum; FIG. 34
Sequence of gD-HVEM interactions (P03172 26-330 R52Q): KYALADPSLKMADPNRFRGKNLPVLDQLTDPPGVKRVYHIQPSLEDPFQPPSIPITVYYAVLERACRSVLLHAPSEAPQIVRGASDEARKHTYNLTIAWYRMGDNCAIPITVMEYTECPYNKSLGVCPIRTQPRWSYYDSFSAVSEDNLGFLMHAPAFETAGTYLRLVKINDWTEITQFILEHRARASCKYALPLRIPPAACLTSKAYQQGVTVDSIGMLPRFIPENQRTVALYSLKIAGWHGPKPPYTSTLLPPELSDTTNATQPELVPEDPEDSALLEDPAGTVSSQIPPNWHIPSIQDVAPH
Description: Inhibition of gD-HVEM interactions by modified gD immune serum was also analyzed. Specifically, 100 μL of gD1-305-cys-strep dimer adjusted to a concentration of 5 μg/mL with phosphate buffered saline was immobilized in a 96-well microtiter plate at 4° C. overnight. Subsequently, blocking and washing were performed as in the competitive ELISA method described above, 100 μL of IgG purified from each immune serum was added at any concentration and reacted at room temperature for one hour. Subsequently, 1 μg/mL of HVEM (Recombinant Human HVEM/TNFRSF14 Fc Chimera Protein, R&D SYSTEMS, Inc.) was diluted at any dilution fold with 1% BSA PBS, each added at 100 μL and reacted at room temperature for an additional hour. Each well was washed again with PBS-T, then, HRP-labeled antibody (anti-hFc/HRP/1% BSA PBS) was reacted. Each well was washed with PBS-T, then colored, and after the reaction was stopped with 1N sulfuric acid, absorbance of 450 nm/650 nm was measured.

splenocytes = experiment: Cellular immune (T cell immune)-inducing activity, IFN-γ production response of splenocytes; assay type: in vivo, BALB/c mice; details: 3 μg/mouse; compared to the wild-type gD immune group; FIG. 25
Description: Furthermore, for cellular immune (T cell immune) inducing activity, the IFN-γ production response activity (recall activity) of splenocytes (a pool sample of four cases) prepared from mice immunized with gD1-315v3-55 as an example of a modified gD antigen and wild-type gD (gD1-315) (3 μg/mouse of the administration group) was compared and analyzed. Specifically, 5 weeks old BALB/c mice were immunized with 3 μg of antigen subcutaneously in back at 2-week intervals for a total of 3 times, and splenocytes were collected 2 weeks after the final immunization. Anti-IFN-γ was immobilized in a 96-well plate with a PVDF membrane on the bottom surface and cells were seeded at 1×10^6 cells/100 μL/well. Immune antigens were added as stimulants at 10 mM and the cells were cultured at 37° C. and 5% CO2 for 20 hours. The supernatant was removed and the anti-mouse IFNγ-HRP antibody was reacted, then HRP was stained with AEC reagents to count IFNγ-producing cell numbers with an Image Analyzer (CTL).

HSV-2 MS strain = experiment: Mouse infection-prevention test of modified gD (genital herpes infection model); assay type: in vivo, BALB/c mice; design: key to Determination (vs gD1-315) / Determination# (vs gD1-315): ++: minimum effective dose based on the Significant difference test in three-fold common ratio relative to gD1-315(WT) of two or more doses stronger; +: those of one dose stronger; ±: those of an equivalent value
Summary of the method: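 Female BALB/c mice immunized s.c. three times at 2-week intervals with gD antigen at 0.1–0.003 μg/mouse/time plus MPLA (10 μg) and CpG (1 μg), n=10. Depo-Provera 2 mg s.c. given, then 5×10^5 PFU HSV-2 MS intravaginally 2 weeks post-boost; survival over 21 days, Kaplan-Meier vs saline, scored relative to wild-type gD1-315.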

[2] = Experiment 1, 0.003 μg/head/time
[3] = Experiment 1, 0.01 μg/head/time
[4] = Experiment 1, 0.03 μg/head/time
[5] = Experiment 1, minimum effective dose relative to gD1-315(WT)
[6] = Experiment 2, 0.003 μg/head/time
[7] = Experiment 2, 0.01 μg/head/time
[8] = Experiment 2, 0.03 μg/head/time

B1: gD1-315v5-55: gD1-315 with glycochains at SC-A, SC-F, linked to T cell epitope peptide DP5 (protein)
chain: KYALADPSLKMADPNRFRGKNLPVLDQLTDPPGVKRVYHIQPSLEDPFQNASIPITVYYAVLERACRSVLLHAPSEAPQIVRGASDEARKHTYNLTIAWYRMGDNCAIPITVMEYTECPYNKSLGVCPIRTQPRWSYYDSFSAVSEDNLGFLMHAPAFETAGTYLRLVKINDWTEITQFILEHRANASCKYALPLRIPPAACLTSKAYQQGVTVDSIGMLPRFIPENQRTVALYSLKIAGWHGPKPPYTSTLLPPELSDTTNATQPELVPEDPEDSALLEDPAGTVSSQIPPNWHIPSIQDVAPHHAPAAPSNPGGPGPGIAFWVRRRAQMAPKPLRIAFWVRRRAQMAPKPLRHHHHHH
modifications: left off: small tags and cut ends
Relative reactivity with antibody No. 82 (gD1-315 wild-type set to 1) [1]: approximately 12 fold | Reactivity with anti-gD2 antibody 1 [1]: + ((+): 70% or more) | Reactivity with anti-gD2 antibody 5 [1]: − ((−): less than 30%) | Reactivity with anti-gD2 antibody 13 [1]: + ((+): 70% or more) | Reactivity with anti-gD2 antibody 72 [1]: − ((−): less than 30%) | Reactivity with anti-gD2 antibody 75 [1]: − ((−): less than 30%) | Reactivity with anti-gD2 antibody 78 [1]: − ((−): less than 30%) | Reactivity with anti-gD2 antibody 82 [1]: + ((+): 70% or more) | Reactivity with HVEM (HVEM): highest reactivity | Percentage of antibodies in immune serum competing with antibody No. 1 (gD1-315): little change | Percentage of antibodies in immune serum competing with antibody No. 72 (gD1-315): tend to decrease | Percentage of antibodies in immune serum competing with antibody No. 82 (gD1-315): increased percentage | Inhibition of gD-HVEM interaction by immune serum IgG (gD-HVEM interactions): strong inhibitory effects

B2: gD1-315v3-55: gD1-315 with glycochain at SC-F, linked to two DP5 T cell epitope peptides (protein)
chain: KYALADPSLKMADPNRFRGKNLPVLDQLTDPPGVKRVYHIQPSLEDPFQNASIPITVYYAVLERACRSVLLHAPSEAPQIVRGASDEARKHTYNLTIAWYRMGDNCAIPITVMEYTECPYNKSLGVCPIRTQPRWSYYDSFSAVSEDNLGFLMHAPAFETAGTYLRLVKINDWTEITQFILEHRARASCKYALPLRIPPAACLTSKAYQQGVTVDSIGMLPRFIPENQRTVALYSLKIAGWHGPKPPYTSTLLPPELSDTTNATQPELVPEDPEDSALLEDPAGTVSSQIPPNWHIPSIQDVAPHHAPAAPSNPGGPGPGIAFWVRRRAQMAPKPLRIAFWVRRRAQMAPKPLRHHHHHH
modifications: left off: small tags and cut ends
Reactivity with anti-gD2 antibody 1 [1]: + ((+): 70% or more) | Reactivity with anti-gD2 antibody 5 [1]: − ((−): less than 30%) | Reactivity with anti-gD2 antibody 13 [1]: + ((+): 70% or more) | Reactivity with anti-gD2 antibody 72 [1]: − ((−): less than 30%) | Reactivity with anti-gD2 antibody 75 [1]: − ((−): less than 30%) | Reactivity with anti-gD2 antibody 78 [1]: − ((−): less than 30%) | Reactivity with anti-gD2 antibody 82 [1]: + ((+): 70% or more) | IFN-γ production response activity (recall activity) of splenocytes (splenocytes): higher response activity | Mean survival time (HSV-2 MS strain; [2]): >16 days | Significant difference test (vs saline) (HSV-2 MS strain; [2]): *** (*** p < 0.001) | Mean survival time (HSV-2 MS strain; [3]): 15 days | Significant difference test (vs saline) (HSV-2 MS strain; [3]): *** (*** p < 0.001) | Mean survival time (HSV-2 MS strain; [4]): >21 days | Significant difference test (vs saline) (HSV-2 MS strain; [4]): *** (*** p < 0.001) | Mean survival time (HSV-2 MS strain; Experiment 1, 0.1 μg/head/time): >21 days | Significant difference test (vs saline) (HSV-2 MS strain; Experiment 1, 0.1 μg/head/time): *** (*** p < 0.001) | Determination (vs gD1-315) (HSV-2 MS strain; [5]): ++ | Mean survival time (HSV-2 MS strain; [6]): 7 days | Significant difference test (vs saline) (HSV-2 MS strain; [6]): N.S. | Mean survival time (HSV-2 MS strain; [7]): >16 days | Significant difference test (vs saline) (HSV-2 MS strain; [7]): N.S. | Mean survival time (HSV-2 MS strain; [8]): >22 days | Significant difference test (vs saline) (HSV-2 MS strain; [8]): *** (*** p < 0.001) | Mean survival time (HSV-2 MS strain; Experiment 2, 0.1 μg/head/time): >22 days | Significant difference test (vs saline) (HSV-2 MS strain; Experiment 2, 0.1 μg/head/time): *** (*** p < 0.001) | Determination# (vs gD1-315) (HSV-2 MS strain; Experiment 2, minimum effective dose relative to gD1-315(WT)): + | Percentage of antibodies in immune serum competing with antibody No. 1 (gD1-315): little change | Percentage of antibodies in immune serum competing with antibody No. 72 (gD1-315): tend to decrease | Percentage of antibodies in immune serum competing with antibody No. 82 (gD1-315): increased percentage

B3: gD1-315v5: gD1-315 with glycochains at R186 (SC-A) and P50 (SC-F) (protein)
chain: KYALADPSLKMADPNRFRGKNLPVLDQLTDPPGVKRVYHIQPSLEDPFQNASIPITVYYAVLERACRSVLLHAPSEAPQIVRGASDEARKHTYNLTIAWYRMGDNCAIPITVMEYTECPYNKSLGVCPIRTQPRWSYYDSFSAVSEDNLGFLMHAPAFETAGTYLRLVKINDWTEITQFILEHRANASCKYALPLRIPPAACLTSKAYQQGVTVDSIGMLPRFIPENQRTVALYSLKIAGWHGPKPPYTSTLLPPELSDTTNATQPELVPEDPEDSALLEDPAGTVSSQIPPNWHIPSIQDVAPHHAPAAPSNPGHHHHHH
Relative reactivity with antibody No. 82 (gD1-315 wild-type set to 1) [1]: substantially similar reactivity | Reactivity with anti-gD2 antibody 1 [1]: + ((+): 70% or more) | Reactivity with anti-gD2 antibody 5 [1]: − ((−): less than 30%) | Reactivity with anti-gD2 antibody 13 [1]: + ((+): 70% or more) | Reactivity with anti-gD2 antibody 72 [1]: ± ((±): 30% or more and less than 70%) | Reactivity with anti-gD2 antibody 75 [1]: − ((−): less than 30%) | Reactivity with anti-gD2 antibody 78 [1]: − ((−): less than 30%) | Reactivity with anti-gD2 antibody 82 [1]: + ((+): 70% or more) | Reactivity with HVEM (HVEM): little reaction | Mean survival time (HSV-2 MS strain; [2]): 6.5 days | Significant difference test (vs saline) (HSV-2 MS strain; [2]): N.S. | Mean survival time (HSV-2 MS strain; [3]): >21 days | Significant difference test (vs saline) (HSV-2 MS strain; [3]): *** (*** p < 0.001) | Mean survival time (HSV-2 MS strain; [4]): >21 days | Significant difference test (vs saline) (HSV-2 MS strain; [4]): *** (*** p < 0.001) | Mean survival time (HSV-2 MS strain; Experiment 1, 0.1 μg/head/time): >21 days | Significant difference test (vs saline) (HSV-2 MS strain; Experiment 1, 0.1 μg/head/time): *** (*** p < 0.001) | Determination (vs gD1-315) (HSV-2 MS strain; [5]): +
